Data on one sequence can be found in article PMC7601328.

This series addresses RNA polymerase holoenzyme (beta, beta', alpha, omega, sigma) (Escherichia coli) (UniProt P0A8V2+P0A8T7+P0A7Z4+P0A800+P00579). Nature of the series: EMSA. Particulars: 40 mM Hepes-KOH pH 8, 50 mM KCl, 10 mM Mg acetate, 0.5 mM DTT, 0.005% NP40, 50 uM ATP, 30 C; ~0.3 pmol DNA and 7 pmol RNAP in 200 uL; time course, heparin …. In general terms: In EMSA bound probe runs differently from free probe, usually more slowly.

With “GTGCTGCGAAATCATCGGTGTAAATAGGGCTATATGCCGCGTCTTTTCTGGCTAATTTTATGAAAAGATATTTATTGGCGGCACAAAATAAAGAACAATTTTGAATTCCTTACATTCCTGGCTATTGCACAACTGAATTTAAGGCTCTATTATTACCTCAACAAACCACCCCAATATAAGTTTGAGATTACTACAATGAGCGAAGCACTTAAAATTCTGAA (double strand) [hns promoter fragment, 221 bp (-159 to +62)]”, the binding result is given as “binds”.
